Results reported in patent publication US20240116985A1 (published 2024).
Starred links: 1 amine or outer side, 2 acyl side, 3 side chain; linkers in the order of their positions; H or OH if unused. Positions of bridges follow the written chain, without caps; N, C: chain ends. Non-standard residues stand in square brackets, D forms with d. Primed or numbered codes have the meaning given here. PyrS2(3) = (S)-3-amino-1-((pent-4-en-1-yloxy)carbonyl)pyrrolidine-3-carboxylic acid, stapling residue, C=CCCCOC(=O)N1CC[C@@](N[*:1])(C(=O)[*:2])C1; PyrS2″ = (S)-3-amino-1-((pent-4-en-1-yloxy)carbonyl)pyrrolidine-3-carboxylic acid (stapling residue), C=CCCCOC(=O)N1CC[C@@](N[*:1])(C(=O)[*:2])C1; B5(16) = 2-amino-2-(pent-4-en-1-yl)hept-6-enoic acid = 2,2-bis(4-pentenyl)glycine (stitching residue), C=CCCCC(CCCC=C)(N[*:1])C(=O)[*:2]; PyrS = (S)-1-((allyloxy)carbonyl)-3-aminopyrrolidine-3-carboxylic acid, C=CCOC(=O)N1CC[C@@](N[*:1])(C(=O)[*:2])C1; B5 = 2-amino-2-(pent-4-en-1-yl)hept-6-enoic acid, C=CCCCC(CCCC=C)(N[*:1])C(=O)[*:2]; Phe(3-CF3) = N[C@@H](Cc1cccc(C(F)(F)F)c1)C(=O)O; Phe(2-Cl) = N[C@@H](Cc1ccccc1Cl)C(=O)O; Phe(4-F) = N[C@@H](Cc1ccc(F)cc1)C(=O)O; Bta = N[C@@H](Cc1csc2ccccc12)C(=O)O; αAllylPro = C=CC[C@@]1(C(=O)O)CCCN1; tBuAla = CC(C)(C)C[C@H](N)C(=O)O; R8 = C=CCCCCCC[C@@](C)(N)C(=O)O; S8 = C=CCCCCCC[C@](C)(N)C(=O)O; R5 = C=CCCC[C@@](C)(N)C(=O)O

T1: full-length beta-Catenin (Uniprot ID P35222) (Homo sapiens (Human), UniProt P35222 1-781)
T1 construct: also called bCat
T1 sequence: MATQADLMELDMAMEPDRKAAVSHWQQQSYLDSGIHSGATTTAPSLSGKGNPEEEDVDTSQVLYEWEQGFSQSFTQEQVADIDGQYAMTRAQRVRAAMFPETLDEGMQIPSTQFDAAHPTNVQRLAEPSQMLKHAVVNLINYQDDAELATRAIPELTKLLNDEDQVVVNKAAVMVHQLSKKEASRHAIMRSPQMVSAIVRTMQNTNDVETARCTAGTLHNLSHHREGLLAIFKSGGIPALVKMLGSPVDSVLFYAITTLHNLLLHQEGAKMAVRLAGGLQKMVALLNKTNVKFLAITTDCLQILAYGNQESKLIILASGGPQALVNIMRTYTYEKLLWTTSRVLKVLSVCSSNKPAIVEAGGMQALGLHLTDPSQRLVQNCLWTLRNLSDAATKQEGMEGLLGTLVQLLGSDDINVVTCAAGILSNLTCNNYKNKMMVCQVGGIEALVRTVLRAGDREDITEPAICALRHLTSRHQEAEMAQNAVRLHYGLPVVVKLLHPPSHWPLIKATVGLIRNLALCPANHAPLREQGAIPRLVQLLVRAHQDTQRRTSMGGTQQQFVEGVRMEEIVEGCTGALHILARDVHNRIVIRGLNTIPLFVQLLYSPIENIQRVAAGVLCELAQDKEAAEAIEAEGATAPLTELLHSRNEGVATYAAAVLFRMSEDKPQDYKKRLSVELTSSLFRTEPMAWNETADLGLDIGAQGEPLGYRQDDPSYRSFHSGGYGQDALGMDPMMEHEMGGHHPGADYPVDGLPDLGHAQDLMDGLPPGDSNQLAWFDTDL

T2: full-length beta-Catenin (Uniprot ID P35222) (Homo sapiens (Human), UniProt P35222 2-781)
T2 construct: Used full-length in both the FP and the AlphaScreen assay; also called B-Catenin; bCat
T2 sequence: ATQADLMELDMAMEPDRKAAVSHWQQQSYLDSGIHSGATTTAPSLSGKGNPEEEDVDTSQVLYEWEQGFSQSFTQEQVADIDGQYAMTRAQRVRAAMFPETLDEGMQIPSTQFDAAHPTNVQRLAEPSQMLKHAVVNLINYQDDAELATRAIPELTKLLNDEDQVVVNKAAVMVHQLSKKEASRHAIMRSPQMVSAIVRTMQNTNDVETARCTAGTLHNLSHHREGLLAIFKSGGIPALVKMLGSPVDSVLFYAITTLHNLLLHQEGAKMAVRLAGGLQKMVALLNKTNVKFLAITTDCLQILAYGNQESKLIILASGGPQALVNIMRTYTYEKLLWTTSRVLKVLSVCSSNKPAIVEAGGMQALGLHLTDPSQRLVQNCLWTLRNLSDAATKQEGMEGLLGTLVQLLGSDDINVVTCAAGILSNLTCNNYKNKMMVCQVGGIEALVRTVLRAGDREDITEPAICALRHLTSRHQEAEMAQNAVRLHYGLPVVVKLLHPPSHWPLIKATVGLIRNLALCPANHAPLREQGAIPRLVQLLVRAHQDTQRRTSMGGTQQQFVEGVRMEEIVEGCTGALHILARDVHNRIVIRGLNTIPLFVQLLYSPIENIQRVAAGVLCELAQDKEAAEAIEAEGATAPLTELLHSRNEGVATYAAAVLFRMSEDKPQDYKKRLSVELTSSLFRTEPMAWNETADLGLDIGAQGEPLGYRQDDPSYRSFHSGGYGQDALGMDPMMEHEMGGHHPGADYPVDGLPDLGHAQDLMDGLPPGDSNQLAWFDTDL

T3: beta-Catenin (full-length, Uniprot ID P35222) (Homo sapiens (Human), UniProt P35222 1-781)
T3 construct: also called bCat; B-Catenin
T3 sequence: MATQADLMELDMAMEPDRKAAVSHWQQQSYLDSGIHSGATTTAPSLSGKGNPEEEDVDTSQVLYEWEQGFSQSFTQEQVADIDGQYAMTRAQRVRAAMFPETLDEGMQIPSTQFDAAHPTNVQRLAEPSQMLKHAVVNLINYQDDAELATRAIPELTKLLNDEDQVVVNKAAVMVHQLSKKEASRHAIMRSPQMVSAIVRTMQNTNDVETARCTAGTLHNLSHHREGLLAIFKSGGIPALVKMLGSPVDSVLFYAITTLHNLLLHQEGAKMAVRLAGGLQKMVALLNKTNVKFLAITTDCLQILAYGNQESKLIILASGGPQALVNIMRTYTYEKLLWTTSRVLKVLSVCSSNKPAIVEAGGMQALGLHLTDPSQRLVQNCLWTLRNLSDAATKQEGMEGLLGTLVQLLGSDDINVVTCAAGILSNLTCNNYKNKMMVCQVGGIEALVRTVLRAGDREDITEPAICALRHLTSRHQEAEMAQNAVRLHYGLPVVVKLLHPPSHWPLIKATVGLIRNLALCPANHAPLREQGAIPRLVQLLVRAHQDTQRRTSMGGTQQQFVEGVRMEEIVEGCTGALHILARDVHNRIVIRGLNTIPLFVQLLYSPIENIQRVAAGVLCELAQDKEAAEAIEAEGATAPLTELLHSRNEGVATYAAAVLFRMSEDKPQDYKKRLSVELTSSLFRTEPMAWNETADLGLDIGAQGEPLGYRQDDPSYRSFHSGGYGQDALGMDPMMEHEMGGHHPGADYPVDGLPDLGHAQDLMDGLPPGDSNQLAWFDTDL


How the values were obtained:
[1] = target: T1, full-length beta-Catenin (Uniprot ID …); experiment: fluorescence polarization competition; full-length beta-catenin; competitor 5FAM-TCF4(10-53) probe
Protocol: (§1) The plate was incubated protected from light for 60 minutes at 20° C. prior to read. Reads were performed on a CLARIOstar plate reader (BMG Labtech) in duplicate, and data were fitted to a 1:1 binding model with hill slope using an in-house script. All provided concentrations are final concentrations.

[2] = target: T2, full-length beta-Catenin (Uniprot ID …); experiment: AlphaScreen competition; full-length beta-catenin, biotin-TCF4(10-53) probe
Protocol: as §1, with “Equal volume of the titrated peptide was added to the” for “The”, “and” for “was”, “incubated for 15 minutes at 20° C. Then 4 uL of donor and 4 uL acceptor beads at 10 ug/mL were added to the plate, for a 16 uL reaction pool and” for “incubated”

[3] = target: T2, full-length beta-Catenin (Uniprot ID …); experiment: fluorescence polarization competition; full-length beta-catenin, 5FAM-TCF4(10-53) probe
Protocol: as §1

[4] = target: T3, beta-Catenin (full-length, Uniprot ID …); experiment: fluorescence polarization competition: peptide titrated against 10 nM full-length beta-catenin + 10 nM 5FAM-labeled TCF4 residues 10-53 probe
Protocol: as §1

Row | EC50 [1] [nM] | Binder | other results
1 | 409 | Ac-PD[tBuAla][R5]DDAAFN[PyrS2(3)][Phe(2-Cl)][Bta]Q-NH2 (staple 4-11, stapled peptide (single staple)) [I-1183] | –
2 | – | Ac-FDA[R8]DDAA[Phe(4-F)]V[PyrS]FWQ-NH2 (staple 4-11, Stapled peptide; also called Ac-Phe-Asp-Ala-R8-Asp-Asp-Ala-Ala-4FF-Val-PyrS-Phe-Trp-Gln-NH2) [I-78] | EC50 [2]: 7480 nM; EC50 [3]: 5000 nM
3 | – | Ac-[αAllylPro]DA[B5]DDAAFV[S8][Phe(3-CF3)]WQ-NH2 (staple 1-4, 4-11, These are separate isomer compositions) [I-250: Ac-PL3-Asp-Ala-B5-Asp-Asp-Ala-Ala-Phe-Val-S8-3F3MeF-Trp-Gln-NH2] | IC50 [4]: 5000 nM
4 | 60 | Ac-[αAllylPro]DF[B5(16)]DDLLFS[PyrS2″][Phe(2-Cl)][Bta]Q-NH2 (staple 1-4, 4-11, stapled peptide) [I-1155] | –
5 | 45 | Ac-[αAllylPro]DF[B5(16)]DDALFS[PyrS2″][Phe(2-Cl)][Bta]Q-NH2 (staple 1-4, 4-11, stapled peptide) [I-1154] | –
6 | 12 | Ac-[αAllylPro]DF[B5(16)]DDLAFS[PyrS2″][Phe(2-Cl)][Bta]Q-NH2 (staple 1-4, 4-11, stapled peptide) [I-1153] | –
7 | – | XDAXDDAAFVXFWQ (not fully specified; N-terminal Ac; PL3 at position 1; B5 at position 4; S8 at position 11; 34FF at position 12; C-terminal NH2; stapled by olefin metathesis (PL3-B5 and B5-S8), It is the later-eluting isomer composition) [I-263: Ac-PL3-Asp-Ala-B5-Asp-Asp-Ala-Ala-Phe-Val-S8-34FF-Trp-Gln-NH2] | IC50 [4]: 5000 nM
